Experimental data as given in article PMC6018636, “Mutually exclusive acetylation and ubiquitylation of the splicing factor SRSF5 control tumor growth” (Nature Communications, 2018).

Target: T1, His-Smurf1 (UniProt Q9HCE7-2 1-731)
T1 construct: Smurf1, inserted into pET-28a; also called His-tagged Smurf1; source: Escherichia coli BL21, purified
Test: pull-down; bacteria-expressed GST-tagged protein immobilised on glutathione-Sepharose 4B beads, incubated with His-tagged protein for 8 h at 4 °C; washed with GST-binding buffer (100 mM NaCl, 50 mM NaF, 2 mM EDTA, 1% NP-40); immunoblotting
Conditions: both partners purified

T1 sequence (Q9HCE7 other isoform, or with tags, fused parts or gaps): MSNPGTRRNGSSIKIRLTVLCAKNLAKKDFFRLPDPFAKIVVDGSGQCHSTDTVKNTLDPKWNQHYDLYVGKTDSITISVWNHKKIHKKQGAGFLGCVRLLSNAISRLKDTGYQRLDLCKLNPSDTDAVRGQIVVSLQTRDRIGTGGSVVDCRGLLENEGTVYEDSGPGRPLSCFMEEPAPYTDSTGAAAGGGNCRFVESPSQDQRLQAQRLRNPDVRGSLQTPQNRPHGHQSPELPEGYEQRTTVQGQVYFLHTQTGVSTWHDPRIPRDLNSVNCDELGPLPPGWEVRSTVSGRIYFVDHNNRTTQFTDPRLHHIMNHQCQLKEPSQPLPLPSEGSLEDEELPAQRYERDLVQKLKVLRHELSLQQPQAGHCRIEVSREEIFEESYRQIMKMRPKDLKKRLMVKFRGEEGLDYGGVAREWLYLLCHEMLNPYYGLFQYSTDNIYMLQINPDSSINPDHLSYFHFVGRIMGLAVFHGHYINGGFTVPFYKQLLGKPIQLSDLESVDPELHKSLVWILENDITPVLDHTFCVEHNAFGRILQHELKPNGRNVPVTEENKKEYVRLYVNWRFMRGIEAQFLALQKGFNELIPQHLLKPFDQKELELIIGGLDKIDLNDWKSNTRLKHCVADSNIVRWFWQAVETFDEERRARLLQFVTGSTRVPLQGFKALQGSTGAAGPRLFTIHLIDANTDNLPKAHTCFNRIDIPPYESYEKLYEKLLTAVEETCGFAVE

binding result: binds
B1: GST-SRSF5 (natural protein, UniProt Q13243 1-272, looked up)
chain: MSGCRVFIGRLNPAAREKDVERFFKGYGRIRDIDLKRGFGFVEFEDPRDADDAVYELDGKELCSERVTIEHARARSRGGRGRGRYSDRFSSRRPRNDRRNAPPVRTENRLIVENLSSRVSWQDLKDFMRQAGEVTFADAHRPKLNEGVVEFASYGDLKNAIEKLSGKEINGRKIKLIEGSKRHSRSRSRSRSRTRSSSRSRSRSRSRSRKSYSRSRSRSRSRSRSKSRSVSRSPVPEKSQKRGSSSRSKSPASVDRQRSRSRSRSRSVDSGN
notes: splicing factor SRSF5, inserted into pGEX-6P-1; also called GST–SRSF5 fusion protein; source: Escherichia coli BL21, purified; immobilised on glutathione-Sepharose 4B beads
